Experimental data reported in patent US20240409647A1 (SINOMAB BIOSCIENCE, published 2024).

Key:
[1] = biological target: T1, human IL-17 receptor subunit C (human, UniProt Q8NAC3-2 21-467, limits assumed); assay: ELISA, coated receptor; SM17 at 0.00064 µg/mL; well 2
T1 construct: also called IL17RC; hIL17RC
T1 sequence (looked up): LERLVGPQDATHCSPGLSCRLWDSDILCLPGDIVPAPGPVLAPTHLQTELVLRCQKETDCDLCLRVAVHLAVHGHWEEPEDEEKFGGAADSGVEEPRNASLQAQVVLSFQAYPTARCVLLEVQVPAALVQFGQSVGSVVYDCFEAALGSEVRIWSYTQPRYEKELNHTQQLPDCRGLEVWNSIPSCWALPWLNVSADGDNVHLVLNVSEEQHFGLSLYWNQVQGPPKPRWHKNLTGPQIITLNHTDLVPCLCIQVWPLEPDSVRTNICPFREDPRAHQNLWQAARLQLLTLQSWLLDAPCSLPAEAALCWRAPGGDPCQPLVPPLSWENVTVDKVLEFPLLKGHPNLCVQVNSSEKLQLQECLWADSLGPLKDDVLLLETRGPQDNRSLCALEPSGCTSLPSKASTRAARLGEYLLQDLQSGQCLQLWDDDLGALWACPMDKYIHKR

[2] = biological target: T2, human IL-17 receptor subunit D (human, UniProt Q8NFM7 28-299, limits assumed); assay: as above
T2 construct: also called IL17RD; hIL 17RD
T2 sequence (looked up): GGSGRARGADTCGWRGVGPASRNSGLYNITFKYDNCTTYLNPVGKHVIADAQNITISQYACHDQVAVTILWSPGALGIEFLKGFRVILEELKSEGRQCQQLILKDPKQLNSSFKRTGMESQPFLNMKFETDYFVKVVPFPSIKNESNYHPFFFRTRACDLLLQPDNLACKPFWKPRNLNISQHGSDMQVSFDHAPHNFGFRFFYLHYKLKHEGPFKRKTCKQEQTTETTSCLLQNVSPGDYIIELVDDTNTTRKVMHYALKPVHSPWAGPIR

[3] = biological target: T3, human IL-17RB protein (recombinant, R&D systems) (human); assay: as above
T3 construct: Bought protein; also called hIL17RB
T3 sequence (Q9NRM6 whole entry, looked up): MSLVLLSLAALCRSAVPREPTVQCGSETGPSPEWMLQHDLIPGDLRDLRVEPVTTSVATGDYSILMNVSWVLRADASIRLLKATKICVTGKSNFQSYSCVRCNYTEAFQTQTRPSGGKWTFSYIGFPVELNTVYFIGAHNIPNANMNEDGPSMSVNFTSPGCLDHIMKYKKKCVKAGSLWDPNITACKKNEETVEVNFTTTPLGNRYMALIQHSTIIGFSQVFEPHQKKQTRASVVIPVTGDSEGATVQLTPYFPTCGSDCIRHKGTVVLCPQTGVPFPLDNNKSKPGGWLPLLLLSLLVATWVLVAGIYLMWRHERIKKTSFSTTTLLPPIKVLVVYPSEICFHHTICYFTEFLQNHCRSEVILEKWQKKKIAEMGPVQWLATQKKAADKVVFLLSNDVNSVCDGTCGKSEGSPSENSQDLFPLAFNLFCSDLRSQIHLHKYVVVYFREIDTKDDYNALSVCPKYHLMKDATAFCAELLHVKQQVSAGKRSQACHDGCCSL

[4] = biological target: T3, human IL-17RB protein (recombinant, R&D …); assay: BLI (Octet RED96), SM17 captured via anti-human Fab CH1, IL17RB in solution; trial 2
Text: (§1) Irrelevant antibody (SM03, anti-human CD22 chimeric IgG1 antibody, SinoMab BioScience Limited) was used as the control reference.

[5] = biological target: T4, cynomolgus monkey IL-17RB protein (recombinant, R&D systems) (cynomolgus monkey, UniProt A0A2K5TUK1 18-289); assay: as above
T4 construct: also called cynomolgus IL17RB; Cyno-IL17RB
T4 sequence: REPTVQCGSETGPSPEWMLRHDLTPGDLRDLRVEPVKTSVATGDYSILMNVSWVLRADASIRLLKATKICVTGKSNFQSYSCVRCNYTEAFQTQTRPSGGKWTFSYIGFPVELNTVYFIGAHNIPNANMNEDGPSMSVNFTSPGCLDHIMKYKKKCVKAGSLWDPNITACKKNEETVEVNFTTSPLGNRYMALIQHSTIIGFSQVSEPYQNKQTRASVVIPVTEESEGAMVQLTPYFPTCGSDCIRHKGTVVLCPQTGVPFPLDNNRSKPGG
Text: as §1

[6] = biological target: T5, human IL-33 (R&D systems) (human, UniProt O95760 112-270); assay: ELISA on coated human IL-33 (2 ug/mL), goat anti-human F(ab')2-HRP [panel 'Binding affinity to human IL-33']
T5 sequence (looked up): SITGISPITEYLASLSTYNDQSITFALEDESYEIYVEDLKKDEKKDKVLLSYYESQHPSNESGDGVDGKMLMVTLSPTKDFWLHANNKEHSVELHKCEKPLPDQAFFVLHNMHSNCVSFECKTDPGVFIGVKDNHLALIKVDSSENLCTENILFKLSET

OD 450 nm Absorption [1]: 0.08 OD450 | OD 450 nm Absorption [2]: 0.02 OD450 | OD 450 nm Absorption [3]: 0.07 OD450 | Kd [4]: 0.546 nM | koff [4]: 9.98e-05 s⁻¹ | kon [4]: 183000 M⁻¹ s⁻¹ | Kd [5]: 5.11 nM | koff [5]: 0.000215 s⁻¹ | kon [5]: 42100 M⁻¹ s⁻¹ | binding result [6]: no binding
B1: SM17 (antibody, human IgG4 S228P, kappa, V domains shown)
VH: QVQLVQSGAEVKKPGASVKVSCKASGYTFISYWMNWVRQAPGQGLEWMGRIDPYDSEIQYNQKFKDRVTMTRDTSISTAYMELSRLRSDDTAVYYCARSGGFDWFAYWGQGTLVTVSS
VL: DIQMTQSPSSLSASVGDRVTITCRASENINSNLAWYQQKPGKAPKLLLYDVTNLADGVPSRFSGSGSGTDYTLTISSLQPEDFATYYCQHFWGPPYTFGGGTKVEIKR
notes: other paragraphs and claim 15 call the same entries VH and VL; also called humanized anti-IL17RB monoclonal antibody
